Test results published in ChEMBL document CHEMBL3865823, “Ameliorative effects of amide derivatives of 1,3,4-thiadiazoles on scopolamine induced cognitive dysfunction” (Eur J Med Chem, 2016).

How the values were obtained:
Type in all cases: tissue-based
[1] = compound: O=C(Nc1nnc(-c2ccccc2Cl)s1)c1cc(C(F)(F)F)cc(C(F)(F)F)c1; assay: (§1) Inhibition of albino mouse brain AChE assessed as Km for substrate using acetylthiocholine iodide as substrate measured for 2 mins by Ellmans method
[2] = compound: O=C(Nc1nnc(-c2ccccc2)s1)c1cccc(CCl)c1; assay: as §1
[3] = compound: CC(=O)Oc1cccc(C(=O)Nc2nnc(-c3ccccc3Cl)s2)c1; assay: as §1
[4] = compound: CC(CC(=O)Nc1nnc(Cc2ccccc2)s1)CC(C)(C)C; assay: as §1
[5] = compound: Cc1ccc(-c2nnc(NC(=O)c3cc(C(F)(F)F)cc(C(F)(F)F)c3)s2)cc1; assay: as §1
[6] = compound: CC(CC(=O)Nc1nnc(-c2cccc(Cl)c2)s1)CC(C)(C)C; assay: as §1
[7] = compound: O=C(Nc1nnc(-c2ccccc2Cl)s1)c1cccc(CCl)c1; assay: as §1
[8] = compound: CC(=O)Oc1cccc(C(=O)Nc2nnc(-c3ccc(C)cc3)s2)c1; assay: as §1
[9] = compound: CC(=O)Oc1cccc(C(=O)Nc2nnc(-c3ccccc3)s2)c1; assay: as §1
[10] = compound: CC(CC(=O)Nc1nnc(-c2ccccc2)s1)CC(C)(C)C; assay: as §1
[11] = compound: CC(=O)Oc1cccc(C(=O)Nc2nnc(Cc3ccccc3)s2)c1; assay: as §1
[12] = compound: Cc1ccc(-c2nnc(NC(=O)CC(C)CC(C)(C)C)s2)cc1; assay: as §1
[13] = compound: Cc1ccc(-c2nnc(NC(=O)c3cccc(CCl)c3)s2)cc1; assay: as §1
[14] = compound: O=C(Nc1nnc(Cc2ccccc2)s1)c1cccc(CCl)c1; assay: as §1

B1: Acetylcholinesterase (Mus musculus), P21836 (protein)
chain: MRPPWYPLHTPSLAFPLLFLLLSLLGGGARAEGREDPQLLVRVRGGQLRGIRLKAPGGPVSAFLGIPFAEPPVGSRRFMPPEPKRPWSGVLDATTFQNVCYQYVDTLYPGFEGTEMWNPNRELSEDCLYLNVWTPYPRPASPTPVLIWIYGGGFYSGAASLDVYDGRFLAQVEGAVLVSMNYRVGTFGFLALPGSREAPGNVGLLDQRLALQWVQENIAAFGGDPMSVTLFGESAGAASVGMHILSLPSRSLFHRAVLQSGTPNGPWATVSAGEARRRATLLARLVGCPPGGAGGNDTELIACLRTRPAQDLVDHEWHVLPQESIFRFSFVPVVDGDFLSDTPEALINTGDFQDLQVLVGVVKDEGSYFLVYGVPGFSKDNESLISRAQFLAGVRIGVPQASDLAAEAVVLHYTDWLHPEDPTHLRDAMSAVVGDHNVVCPVAQLAGRLAAQGARVYAYIFEHRASTLTWPLWMGVPHGYEIEFIFGLPLDPSLNYTTEERIFAQRLMKYWTNFARTGDPNDPRDSKSPQWPPYTTAAQQYVSLNLKPLEVRRGLRAQTCAFWNRFLPKLLSATDTLDEAERQWKAEFHRWSSYMVHWKNQFDHYSKQERCSDL
Km [1]: 2.35 µM | Km [2]: 16.4 µM | Km [3]: 16 µM | Km [4]: 24.9 µM | Km [5]: 4.89 µM | Km [6]: 17.7 µM | Km [7]: 15.3 µM | Km [8]: 8.01 µM | Km [9]: 1.37 µM | Km [10]: 9.09 µM | Km [11]: 4.47 µM | Km [12]: 7.86 µM | Km [13]: 1.9 µM | Km [14]: 12.9 µM
